Reference: patent US20250326823A1

Experiments:
[1] = biological target: SARS-CoV-2 WA1 spike (S) protein (SARS-CoV-2) (UniProt P0DTC2); experiment: cell-based or functional assay
[2] = biological target: SARS-CoV-2 spike (S) protein, WA1 (SARS-CoV-2) (UniProt P0DTC2); experiment: cell-based or functional assay

| Substance | pseudovirus neutralization IC50 [1] [µg/mL] | IC50, pseudovirus neutralization [2] [nM] | IC80, pseudovirus neutralization [2] [nM] | neutralization IC50 [2] [nM] | neutralization IC80 [2] [nM] |
| --- | --- | --- | --- | --- | --- |
| AZD3152 (antibody) | 0.161 | 1.08 | 2.2 | – | – |
| ADG20 (antibody) | – | – | – | 0.047 | 0.197 |
